Assay results as given in the supplement of paper PMC10126150.
± gives the standard deviation of the averaged measurements.

tested on: ATP; assay: switch fluorescence ratio, 500 uM ATP over buffer (Cy3 cluster intensity, sum of 5 cycles each) (fold (ratio)); higher = stronger signal-on switching upon ATP binding; sequences stand for … in TCGTCGGCAGCGTCAGATGTGTATAAGAGACAGTTTTTTTTTTTTTTTTTTTTTTTTT…TC; conditions: aptamer strand: ATP DNA aptamer (quencher-CACCTGGGGGAGTATTGCGGAGGAAGG + anchor), 100 nM annealed; ATP concentration: 500 uM
Outline: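 Cy3-labelled switching-strand clusters on a modified Illumina MiSeq flow-cell were annealed to 100 nM quencher-labelled ATP aptamer and imaged first in selection buffer, then after 15 min with 500 uM ATP at 22 °C. NaOH stripping and re-annealing separated each of five buffer/ATP cycles, and clusters outside 100-1000 RFU were excluded. The fluorescence ratio sums target-cycle Cy3 intensity over buffer-cycle Cy3 intensity per cluster and averages it per switch-domain sequence.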
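Also: ATP exposure 15 min at 22 °C before imaging.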

In order of rising switch fluorescence ratio:
1. TTTGTGTCCG  0.946 ± 0.088
2. ACAGGGTCG  0.948 ± 0.025
3. TTTGACATGG  0.955 ± 0.029
4. CGCTCGTTGT  0.9559 ± 0.0033
5. CTGGGTTGCG  0.958 ± 0.032
6. CGGGACATAG  0.964 ± 0.026
7. TAAAAAATAT  0.967 ± 0.043
8. TCGTATTAAG  0.969 ± 0.046
9. GCCGTTTTTT  0.97 ± 0.04
10. GTTGAAAAGG  0.971 ± 0.051
11. GGAGGGTTAC  0.972 ± 0.016
12. GTGGCTGGGA  0.974 ± 0.026
13. TAGTTTGGGT  0.974 ± 0.012
14. GATCCGAGGG  0.974 ± 0.018
15. GCTTTTTCCA  0.975 ± 0.035
16. TTTAGACGTG  0.976 ± 0.012
17. AATAATTTGG  0.978 ± 0.012
18. GTGTTATCTG  0.978 ± 0.012
19. GCTGTTAGTG  0.98 ± 0.013
20. GGGAGGGGAG  0.981 ± 0.019
21. CAGTAGGGCA  0.982 ± 0.041
22. CGAGGGATGT  0.982 ± 0.034
23. GGAGGGGATT  0.982 ± 0.03
24. GGTTTATTAA  0.983 ± 0.011
25. GAATTAGTGT  0.984 ± 0.019
26. GTCGGGCCAG  0.985 ± 0.025
27. TGAGTTTGGC  0.9862 ± 0.0013
28. ATGATGATGG  0.9858 ± 0.0096
29. GGGGTGGTCG  0.986 ± 0.083
30. TATGGAGTTA  0.986 ± 0.027
31. ATTCTTAGTA  0.986 ± 0.03
32. TAATGATGAG  0.987 ± 0.028
33. ACATTTCAAA  0.987 ± 0.0069
34. GCCATTGGGG  0.9872 ± 0.0012
35. TTTGCTAGTT  0.988 ± 0.009
36. ATAGTCCAGC  0.988 ± 0.035
37. TTTGATTTAG  0.989 ± 0.026
38. TTAAGTCTAT  0.9889 ± 0.0078
39. CGTTCGTTCG  0.989 ± 0.015
40. ACATTTTCGT  0.991 ± 0.032
41. GTTGTGTCTT  0.991 ± 0.041
42. GTGCTTCTTA  0.992 ± 0.025
43. AAGATTTTTC  0.992 ± 0.013
44. GGGAAATTAT  0.9917 ± 0.0045
45. CTTATAATTG  0.9935 ± 0.00017
46. CGTTCATTGT  0.9942 ± 0.0098
47. GGTCGGGCTG  0.9942 ± 0.0047
48. TTCGTGTCCC  0.994 ± 0.019
49. GGGAAAAAAG  0.994 ± 0.026
50. AGGGGAAGAG  0.994 ± 0.07
51. TTTTTAAGAT  0.995 ± 0.035
52. AGCAGCTAAG  0.995 ± 0.01
53. TCAACGGTCT  0.9955 ± 0.0048
54. TCTGTTGGGC  0.995 ± 0.025
55. TAATTTTGAG  0.9957 ± 0.0029
56. GGGGACGATG  0.996 ± 0.019
57. GAGGTGTGTT  0.996 ± 0.02
58. TTCAGAAAGA  0.998 ± 0.023
59. ACAATGTCGG  0.998 ± 0.011
60. GTTCGCGGTG  0.998 ± 0.017
61. GGGGAGGCCC  0.998 ± 0.031
62. TCTTAAGAGT  0.9987 ± 0.0022
63. CGGTATAATT  0.999 ± 0.042
64. TTAATAGCGT  0.999 ± 0.029
65. TTCGTGTGGT  1 ± 0.019
66. TTTTCGAAGG  1.005 ± 0.0028
67. TCTAAAGCTG  1 ± 0.023
68. AGCGAAGATG  1 ± 0.033
69. CGGGAGAAAG  1 ± 0.022
70. AAGAGTATTG  1 ± 0.02
71. TGAGGCTGTT  1 ± 0.031
72. TTTTTGACGG  1 ± 0.033
73. TTTTGGTTTT  1 ± 0.039
74. ATTAAGGTAG  1 ± 0.014
75. GGCCGCCTTG  1 ± 0.037
76. TTGGAAACAG  1 ± 0.014
77. ACTGGGGTCA  1 ± 0.03
78. ATGGTAGGTA  1 ± 0.031
79. GCGATTATCT  1.002 ± 0.0064
80. TTCGGTATAG  1 ± 0.025
81. AGTATAAAAT  1.01 ± 0.018
82. CTGGTATGGG  1.01 ± 0.03
83. TGGGGCAAAT  1.01 ± 0.034
84. TTCGTACGTC  1.01 ± 0.029
85. AAAGTGATAT  1.01 ± 0.028
86. TTGTAAATTT  1.012 ± 0.01
87. GATTTTTTGA  1.01 ± 0.011
88. GGATGGTATG  1.01 ± 0.015
89. GAGATAAGAG  1.01 ± 0.022
90. TTATTTAAGG  1.01 ± 0.031
91. CAGGGGTGGT  1.01 ± 0.039
92. GGTCTGAAGT  1.008 ± 0.004
93. TCTAATCCGG  1.015 ± 0.0051
94. ATCCTAGGGC  1.007 ± 0.0095
95. GGAAAGTAGG  1.01 ± 0.046
96. ATTTCAGTTG  1.011 ± 0.006
97. AGGGCTCGGG  1.012 ± 0.0075
98. CGGTCGACGA  1.01 ± 0.024
99. GTAGTAGGGA  1.01 ± 0.025
100. ACGTGGGTCT  1.01 ± 0.028
101. TATTAAGTTT  1.02 ± 0.039
102. TTGTAGTGGG  1.02 ± 0.048
103. TTTTTAACAC  1.02 ± 0.021
104. GAGTGACTTG  1.017 ± 0.0089
105. TGCGGTATGT  1.019 ± 0.0014
106. TGATGGGGCA  1.02 ± 0.021
107. CAGGTTCACG  1.02 ± 0.032
108. CTAGTTAGCT  1.015 ± 0.0097
109. GGGGAAATTA  1.02 ± 0.012
110. TACTGAGCAG  1.019 ± 0.003
111. GGATGGGTGT  1.02 ± 0.034
112. ATTTTTAGCT  1.02 ± 0.031
113. TTGGGGGTTA  1.02 ± 0.019
114. AGTAGTGGGT  1.02 ± 0.056
115. CAGCGTCGT  1.02 ± 0.025
116. GCATTGATGT  1.02 ± 0.017
117. TCAGGGTAGC  1.02 ± 0.02
118. AAGGTACTAC  1.03 ± 0.065
119. TGGGACAGGG  1.03 ± 0.088
120. ACGCAGTATG  1.03 ± 0.031
121. AAAAAAGGAC  1.03 ± 0.044
122. GACGCGTGTG  1.03 ± 0.042
123. TTCGTGCGAT  1.04 ± 0.013
124. TTAGCATGGG  1.04 ± 0.037
125. TGTGGGAGCT  1.04 ± 0.07
126. CGACATGAAT  1.037 ± 0.0082
127. ATTTTAAATG  1.04 ± 0.03
128. GGGTAGCAGG  1.04 ± 0.01
129. ACTTTGGACA  1.038 ± 0.0052
130. TTAGGTACGA  1.05 ± 0.011
131. TCGGGGTTTC  1.05 ± 0.019
132. CTTAACTTAG  1.047 ± 0.0015
133. TAAAGTAGTC  1.05 ± 0.044
134. GTTCGAGGGC  1.046 ± 0.002
135. GAATACGGGG  1.06 ± 0.044
136. TTATCATATA  1.06 ± 0.057
137. AAGGAATTAA  1.07 ± 0.12
138. ACTCGGGGGC  1.09 ± 0.23
139. TGGGAGAAAC  1.09 ± 0.091
140. CCCCTTAGCG  1.09 ± 0.0067
141. ATGGTGCCCC  1.09 ± 0.049
142. CTGATCAATG  1.1 ± 0.02
143. ACTTCTTTGT  1.1 ± 0.11
144. CCTTTTTGTC  1.12 ± 0.06
145. GATGCATGGC  1.12 ± 0.035
146. TTCCCGTTGA  1.14 ± 0.027
147. TAAAAGGCAA  1.14 ± 0.085
148. AACGGACAAA  1.2 ± 0.052
149. AGCTGTACTA  1.21 ± 0.029
150. TTGCACTAAC  1.22 ± 0.05
151. TTTACGGAAC  1.244 ± 0.0059
152. GCCCTATGTG  1.25 ± 0.034
153. CGACCATTAA  1.264 ± 0.0043
154. TCTACCTACA  1.33 ± 0.051
155. TTTACTTTTC  1.49 ± 0.75
156. AAGCATTTAC  3.118 ± 0.021
157. GGAGGGGGAC  3.13 ± 3.1
